The source of these data is US20220267441A1 (VOR BIOPHARMA, published 2022).

Like-named read-outs stand apart in the source and are kept apart here. A value given as a limit tells only on which side of the number the result lay.

The target of assay [1] is T1, human CD45 on live cells (REH-1 cells, primary human PBMCs) (human, UniProt P08575 26-1306).
T1 construct: Endogenous CD45
T1 sequence: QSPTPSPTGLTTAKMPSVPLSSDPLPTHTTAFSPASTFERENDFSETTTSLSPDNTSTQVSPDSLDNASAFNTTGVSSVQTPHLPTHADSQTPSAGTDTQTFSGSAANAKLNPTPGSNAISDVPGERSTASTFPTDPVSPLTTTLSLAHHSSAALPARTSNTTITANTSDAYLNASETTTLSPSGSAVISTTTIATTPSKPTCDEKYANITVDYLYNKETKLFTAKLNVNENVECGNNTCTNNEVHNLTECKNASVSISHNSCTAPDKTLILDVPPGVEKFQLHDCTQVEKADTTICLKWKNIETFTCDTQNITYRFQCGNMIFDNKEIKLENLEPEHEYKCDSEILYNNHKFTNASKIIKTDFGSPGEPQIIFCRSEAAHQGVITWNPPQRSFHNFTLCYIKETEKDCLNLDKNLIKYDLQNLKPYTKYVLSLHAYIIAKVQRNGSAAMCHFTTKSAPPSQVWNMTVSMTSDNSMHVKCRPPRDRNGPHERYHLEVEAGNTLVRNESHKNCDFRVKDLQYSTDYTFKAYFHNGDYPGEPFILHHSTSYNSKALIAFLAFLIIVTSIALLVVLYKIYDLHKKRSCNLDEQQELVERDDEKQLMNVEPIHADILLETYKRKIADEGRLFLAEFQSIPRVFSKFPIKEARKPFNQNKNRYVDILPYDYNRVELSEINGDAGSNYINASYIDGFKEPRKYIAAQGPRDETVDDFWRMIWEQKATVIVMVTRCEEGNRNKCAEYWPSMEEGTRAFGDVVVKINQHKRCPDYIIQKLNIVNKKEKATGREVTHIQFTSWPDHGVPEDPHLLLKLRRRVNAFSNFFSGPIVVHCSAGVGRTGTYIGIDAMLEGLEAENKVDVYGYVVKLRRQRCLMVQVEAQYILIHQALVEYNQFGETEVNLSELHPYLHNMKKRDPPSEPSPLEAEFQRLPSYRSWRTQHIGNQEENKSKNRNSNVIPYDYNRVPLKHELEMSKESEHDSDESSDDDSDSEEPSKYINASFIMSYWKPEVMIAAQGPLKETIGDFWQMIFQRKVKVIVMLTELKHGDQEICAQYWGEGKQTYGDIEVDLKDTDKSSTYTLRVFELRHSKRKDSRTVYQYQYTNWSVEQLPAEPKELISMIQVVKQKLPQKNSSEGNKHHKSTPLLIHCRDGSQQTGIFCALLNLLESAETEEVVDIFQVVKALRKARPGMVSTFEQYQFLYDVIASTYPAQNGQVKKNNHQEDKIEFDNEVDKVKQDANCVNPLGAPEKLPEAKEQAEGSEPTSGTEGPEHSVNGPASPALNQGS
The assay can be described thus: flow cytometry on human PBMCs, overnight 37 C, AF488 anti-human IgG. A general note: A flow cytometer gives signals particle by particle.

Assay [2] addresses T1, human CD45 on live cells (REH-1 cells, …). The assay can be described thus: flow cytometry on REH-1 cells, overnight 37 C, AF488 anti-human IgG.
Assay [3] addresses T2, cynomolgus CD45 on live cells (primary cynomolgus PBMCs) (cynomolgus monkey).
T2 construct: Endogenous CD45 on PBMCs; also called cyno CD45; Cyno PBMC
T2 chain: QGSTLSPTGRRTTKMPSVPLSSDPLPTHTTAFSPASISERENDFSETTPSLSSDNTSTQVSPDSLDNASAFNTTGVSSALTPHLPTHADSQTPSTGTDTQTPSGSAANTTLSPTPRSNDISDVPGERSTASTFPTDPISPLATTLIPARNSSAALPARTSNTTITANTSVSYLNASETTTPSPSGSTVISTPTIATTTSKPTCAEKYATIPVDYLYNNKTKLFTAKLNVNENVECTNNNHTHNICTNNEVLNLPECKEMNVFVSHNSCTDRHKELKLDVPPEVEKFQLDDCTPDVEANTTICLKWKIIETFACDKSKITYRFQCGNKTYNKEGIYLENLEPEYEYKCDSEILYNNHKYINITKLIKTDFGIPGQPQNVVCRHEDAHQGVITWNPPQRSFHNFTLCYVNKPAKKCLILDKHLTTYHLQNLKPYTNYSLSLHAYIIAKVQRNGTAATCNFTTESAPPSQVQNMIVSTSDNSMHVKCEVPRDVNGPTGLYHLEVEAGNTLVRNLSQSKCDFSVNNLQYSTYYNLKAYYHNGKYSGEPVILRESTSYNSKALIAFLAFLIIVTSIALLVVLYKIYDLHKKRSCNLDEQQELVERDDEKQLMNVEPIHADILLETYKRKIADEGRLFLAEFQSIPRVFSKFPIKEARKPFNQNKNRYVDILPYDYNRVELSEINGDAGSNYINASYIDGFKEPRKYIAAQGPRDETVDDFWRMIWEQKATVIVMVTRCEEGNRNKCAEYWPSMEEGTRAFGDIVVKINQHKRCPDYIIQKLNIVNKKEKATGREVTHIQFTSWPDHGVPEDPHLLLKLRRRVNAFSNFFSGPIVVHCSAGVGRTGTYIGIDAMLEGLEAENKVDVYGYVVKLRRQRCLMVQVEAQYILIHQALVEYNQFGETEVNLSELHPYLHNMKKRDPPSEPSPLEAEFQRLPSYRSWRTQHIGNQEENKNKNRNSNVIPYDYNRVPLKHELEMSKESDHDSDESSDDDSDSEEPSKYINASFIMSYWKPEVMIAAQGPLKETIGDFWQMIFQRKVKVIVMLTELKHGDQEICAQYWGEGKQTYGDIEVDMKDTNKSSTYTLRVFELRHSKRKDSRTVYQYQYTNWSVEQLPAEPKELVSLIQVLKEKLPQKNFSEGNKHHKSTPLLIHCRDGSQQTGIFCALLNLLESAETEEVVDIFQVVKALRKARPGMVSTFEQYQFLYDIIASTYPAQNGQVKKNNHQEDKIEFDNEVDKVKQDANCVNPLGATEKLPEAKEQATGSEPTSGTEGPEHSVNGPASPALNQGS
The experiment in a line: flow cytometry on cynomolgus PBMCs, overnight 37 C, AF488 anti-human IgG.

Assay [4] addresses T2, cynomolgus CD45 on live cells (primary …). The assay can be described thus: flow cytometry on PBMCs; cyno EC50 against human EC50.
For assay [5] the target is unchanged. The description is as above.
The target is the same in assay [6]. The experiment in a line: flow cytometry on cynomolgus PBMCs, overnight 37 C, AF488 anti-human IgG.
Assay [7] concerns the target T1, human CD45 on live cells (REH-1 cells, …). The assay can be described thus: flow cytometry on human PBMCs, overnight 37 C, AF488 anti-human IgG. This is another data set of the same source.
In assay [8] the target is T3, purified human CD45 ectodomain (human CD45RABC antigen) (human, UniProt P08575 26-577).
T3 construct: also called hCD45
T3 sequence: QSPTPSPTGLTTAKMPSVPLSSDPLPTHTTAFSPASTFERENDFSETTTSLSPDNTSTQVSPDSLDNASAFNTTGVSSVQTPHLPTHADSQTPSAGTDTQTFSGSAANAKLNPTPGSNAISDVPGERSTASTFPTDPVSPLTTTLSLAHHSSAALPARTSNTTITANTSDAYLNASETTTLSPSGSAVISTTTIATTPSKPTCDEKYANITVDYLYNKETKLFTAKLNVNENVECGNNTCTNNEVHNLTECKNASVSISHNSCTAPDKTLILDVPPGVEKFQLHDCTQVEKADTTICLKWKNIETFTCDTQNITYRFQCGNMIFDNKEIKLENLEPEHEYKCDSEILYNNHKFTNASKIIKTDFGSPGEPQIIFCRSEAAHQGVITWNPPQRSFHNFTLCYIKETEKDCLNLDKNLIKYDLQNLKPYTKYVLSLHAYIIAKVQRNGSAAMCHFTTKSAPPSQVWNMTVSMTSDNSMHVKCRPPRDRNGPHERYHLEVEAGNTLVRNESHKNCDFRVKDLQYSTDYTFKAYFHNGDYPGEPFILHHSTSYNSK
The assay can be described thus: BLI (Octet Red96), Table 11; the sentence does not name the species of CD45.

In assay [9] the target is T2, cynomolgus CD45 on live cells (primary …). The assay can be described thus: flow cytometry on cynomolgus PBMCs, overnight 37 C, AF488 anti-human IgG.
Assay [10] addresses T3, purified human CD45 ectodomain (human …). The assay can be described thus: BLI (Octet Red96), antibody on anti-human Fc sensor, 100 nM human CD45 ectodomain, 1:1 fit. For orientation: In BLI a coated tip is dipped into the sample, and binding shifts an interference pattern.
For assay [11], the target named is T1, human CD45 on live cells (REH-1 cells, …). The experiment in a line: flow cytometry on human PBMCs, overnight 37 C, AF488 anti-human IgG. The source holds these as a separate data set.

B1: Ab5 (D265C LALA H435A) (antibody, human IgG1, kappa, L234A L235A, V domains shown)
VH: EVQLVESGGGLVQPGGSLRLSCAASGFTFEAYSMNWVRQAPGKGLEWVSYISLSGATIHYADSVKGRFTISRDNAKNSLYLQMNSLRAEDTAVYYCARGGQYYYTSSDYGEVAFDIWGQGTMVTVSS
VL: DIVMTQSPLSLPVTPGEPASISCRSSQSLVSSGYNYLDWYLQKPGQSPQLLIYFGSSRASGVPDRFSGSGSGTDFTLKISRVEAEDVGVYYCMQRRRTPWSFGGGTKVEIKR
In general, EC50 refers to the concentration giving half of the maximal effect. In the case of B1, the EC50 in assay [1] stood at 1.4 nM; in [2], 0.3 nM; in assay [3], 1.3 nM.

B2: Ab7 (D265C LALA H435A) (antibody, human IgG1, kappa, L234A L235A, V domains shown)
VH: QVQLVESGGGLVKPGGSLRLSCAASGFTFGGYSMNWVRQAPGKGLEWVSYISISGATITYADSVKGRFTISRDNAKNSLYLQMNSLRAEDTAVYYCARGGQYYYDSSDYGEVAFDIWGQGTMVTVSS
VL: DIVMTQSPLSLPVTPGEPASISCRSSQSLVSSGYNYLDWYLQKPGQSPQLLIYFGSSRASGVPDRFSGSGSGTDFTLKISRVEAEDVGVYYCMQRRRTPPFTFGGGTKVEIKR
B2: the concentration for a half-maximal effect (EC50) stood at 1 nM in assay [1], 0.2 nM in assay [2] and 1.3 nM in [3].

B3: Antibody C (AbC) (antibody, IgG1, V domains shown)
VH: EVQLVESGGGLVQPGGSLRLSCAASGFTFNNYWMTWVRQAPGKGLEWVSSISSSGGSIYYPDSVKDRFTISRDNAKNSLYLQMNSLRAEDMAVYYCARLYYYDGGGDAWGQGTLVTVSS
VL: GIQMTQSPSSLSASVGDRVTITCKASQDINKYLDWYQQKPGKAPKLLIYNTNNLHTGIPSRFSGSGSGTDYTLTISSLQPEDFATYYCLQHISRWTFGGGTKVEIK
notes: also called humanized clone AbC
What is called Kd is the equilibrium constant for the complex coming apart. Read a high Kd as weaker binding. Usually koff stands for the rate constant with which the complex falls apart. As usually defined, the kon is a measure of how fast the partners come together. Read a low kon as slower complex formation. For B3, in [4], the “Fold Cyno v/s Human (EC50)” value is 2.1 fold. Moreover, in [5], the “Fold Cyno vs Human (EC50)” value is 1.7 fold. The EC50 in [6] is 0.88 nM; in assay [7], 0.64 nM; in assay [9], 1.34 nM; in [11], 0.51 nM. The “fold improved affinity over the parent clone C” value in assay [8] is over 4 fold. Moreover, in assay [10], the Kd was 2.93 nM. In assay [10], this molecule displayed a koff of 0.000149 s⁻¹. Besides, the kon in assay [10] came to 50800 M⁻¹ s⁻¹.
